Values joined by “and” are separate entries in the source; they are usually repeats but may differ in a detail not shown here. Equal entries are not always repeated.
Legend:
Fyn SH3 (Homo sapiens) = Fyn SH3 (Homo sapiens) (UniProt P06241); settings: cited from earlier work
[1] = target: GST-ΔSH3 p85α (residues 86–742, comprising PR1 to cSH2); assay: ITC; MicroCal ITC200, 25°C, 10 mM sodium phosphate pH 7.5, 150 mM NaCl, 5 mM DTT; PR1 peptide injected into p85α SH3 (100 μM) in the cell, or SH3 (400 μM) in the syringe and GST-ΔSH3 p85α in the cell
class I PXXP peptide = settings: cited from earlier work
[2] = target: p85α SH3-PR1-BH-PR2 fragment (residues 1–333) (UniProt P27986); assay: MST; Alexa647-labelled protein at 20 nM, the same protein unlabelled titrated from 50,000 nM in 1:1 dilutions; 20 mM sodium phosphate pH 8, 150 mM NaCl, 2 mM EDTA, 5 mM DTT; dimerization
[3] = target: p85α SH3-PR1-BH-PR2 fragment (residues 1–333) (UniProt P27986); assay: AUC; sedimentation equilibrium, 20°C, samples at 1.0, 0.5 and 0.25 mg/ml, 11.8, 12.8, 13.8 krpm; global fit to a monomer–dimer–tetramer model (p85α, 1–333) or a monomer–dimer model (PR1-BH); constant of dimerization (dimer to monomers); reducing conditions
p85α SH3 (residues 1–81) = target: T1, p85α SH3 (residues 1–81) (UniProt P27986 1-81); assay: ITC; MicroCal ITC200, 25°C, 10 mM sodium phosphate pH 7.5, 150 mM NaCl, 5 mM DTT; PR1 peptide injected into p85α SH3 (100 μM) in the cell, or SH3 (400 μM) in the syringe and GST-ΔSH3 p85α in the cell; settings: both partners purified
T1 construct: p85α residues 1–81; pET28b
T1 sequence (P27986 1-81): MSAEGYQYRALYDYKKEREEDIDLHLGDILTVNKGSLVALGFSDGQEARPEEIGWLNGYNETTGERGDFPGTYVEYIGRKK

[4] = target: the molecule itself; assay: MST; Alexa647-labelled protein at 20 nM, the same protein unlabelled titrated from 50,000 nM in 1:1 dilutions; 20 mM sodium phosphate pH 8, 150 mM NaCl, 2 mM EDTA, 5 mM DTT; dimerization
[5] = target: the molecule itself; assay: AUC; sedimentation equilibrium, 20°C, samples at 1.0, 0.5 and 0.25 mg/ml, 11.8, 12.8, 13.8 krpm; global fit to a monomer–dimer–tetramer model (p85α, 1–333) or a monomer–dimer model (PR1-BH); constant of dimerization (dimer to monomers); reducing conditions

Sequence of Fyn SH3 (Homo sapiens) (P06241 79-146): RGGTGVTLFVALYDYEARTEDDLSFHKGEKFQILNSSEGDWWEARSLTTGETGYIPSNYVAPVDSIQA

**Q.** For p85α PR1 PR1 (from UniProt P27986), which Kd (Fyn SH3 (Homo sapiens)) is on record?
**A.** The Kd was 16 µM.

**Q.** Which Kd [1] does the source give for “p85α SH3 (residues 1–81) (from UniProt P27986 1-81) (domain or fragment)” here?
**A.** The Kd was 16.8 µM.

**Q.** What about the dH [1] of the same molecule?
**A.** The dH was -13.4 kJ/mol.

**Q.** What about the stoichiometry N [1] of the same molecule?
**A.** The stoichiometry N was 0.8.

**Q.** With p85α SH3 SH3 (from UniProt P27986) as the molecule, how does the Kd (class I PXXP peptide) read?
**A.** The Kd was 40 µM.

**Q.** Which results are given for “p85α SH3-PR1-BH-PR2 fragment (residues 1–333) (from UniProt P27986 1-333) (domain or fragment)”?
**A.** Kd [2]: 0.441 µM; Kd [3]: 0.53 µM

B1: synthetic p85α PR1 peptide PKPRPPRPLPVAP (peptide)
peptide: PKPRPPRPLPVAP
notes: p85α PR1 region, begins at P87; source: synthetic peptide
**Q.** For B1, which Kd (p85α SH3 (residues 1–81)) is on record?
**A.** The Kd was 23.3 µM and 24 µM.

**Q.** And the dH (p85α SH3 (residues 1–81))?
**A.** The dH was -4.9 kJ/mol.

**Q.** And the “stoichiometry N” value (p85α SH3 (residues 1–81))?
**A.** The value was 1.06.

B2: p85α PR1-BH (residues 79–301) (domain or fragment, UniProt P27986 79-301, looked up)
chain: RKKISPPTPKPRPPRPLPVAPGSSKTEADVEQQALTLPDLAEQFAPPDIAPPLLIKLVEAIEKKGLECSTLYRTQSSSNLAELRQLLDCDTPSVDLEMIDVHVLADAFKRYLLDLPNPVIPAAVYSEMISLAPEVQSSEEYIQLLKKLIRSPSIPHQYWLTLQYLLKHFFKLSQTSSKNLLNARVLSEIFSPMLFRFSAASSDNTENLIKVIEILISTEWNER
modifications: Alexa647 label on the labelled copy (MST only)
notes: p85α residues 79–301; pET28b
**Q.** Which results are given for B2?
**A.** Kd [4]: 22.3 µM and 23 µM; Kd [5]: 163 µM

From PMC4518712, “Regulation of the PI3K pathway through a p85α monomer–homodimer equilibrium” (eLife, 2015)
